{
  "source": "paper PMC3154423",
  "binders": {"B1": {"name": "TRE duplex 15-mer (dsDNA)", "DNA 1": "CGCGTGACTCACCCC", "DNA 2": "GGGGTGAGTCACGCG"}},
  "assay_in_all_cases": "ITC",
  "key": {"[1]": {"molecular_target": "Jun bZIP R259A;Fos bZIP R144A (human;human, UniProt P05412;P01100 252-315;137-200, R259A|R144A)", "sequence (P05412 252-315 R259A, chain 1 of 2)": "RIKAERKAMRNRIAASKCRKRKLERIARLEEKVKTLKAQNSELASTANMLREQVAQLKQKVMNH", "sequence (P01100 137-200 R144A, chain 2 of 2)": "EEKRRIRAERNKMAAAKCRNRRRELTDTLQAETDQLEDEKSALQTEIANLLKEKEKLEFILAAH"}, "[2]": {"molecular_target": "Jun bZIP R272A;Fos bZIP R143A (human;human, UniProt P05412;P01100 252-315;137-200, R272A|R143A)", "sequence (P05412 252-315 R272A, chain 1 of 2)": "as the sequence (P05412 252-315 R259A, chain 1 of 2) above, with A8R, R21A counted along it", "sequence (P01100 137-200 R143A, chain 2 of 2)": "as the sequence (P01100 137-200 R144A, chain 2 of 2) above, with R7A, A8R counted along it"}, "[3]": {"molecular_target": "Jun bZIP K268A;Fos bZIP R146A (human;human, UniProt P05412;P01100 252-315;137-200, K268A|R146A)", "sequence (P05412 252-315 K268A, chain 1 of 2)": "as the sequence (P05412 252-315 R259A, chain 1 of 2) above, with A8R, K17A counted along it", "sequence (P01100 137-200 R146A, chain 2 of 2)": "as the sequence (P01100 137-200 R144A, chain 2 of 2) above, with A8R, R10A counted along it"}, "[4]": {"molecular_target": "Jun bZIP K273A;Fos bZIP K148A (human;human, UniProt P05412;P01100 252-315;137-200, K273A|K148A)", "sequence (P05412 252-315 K273A, chain 1 of 2)": "as the sequence (P05412 252-315 R259A, chain 1 of 2) above, with A8R, K22A counted along it", "sequence (P01100 137-200 K148A, chain 2 of 2)": "as the sequence (P01100 137-200 R144A, chain 2 of 2) above, with A8R, K12A counted along it"}, "[5]": {"molecular_target": "Jun bZIP R263A;Fos bZIP K148A (human;human, UniProt P05412;P01100 252-315;137-200, R263A|K148A)", "sequence (P05412 252-315 R263A, chain 1 of 2)": "as the sequence (P05412 252-315 R259A, chain 1 of 2) above, with A8R, R12A counted along it", "sequence (P01100 137-200 K148A, chain 2 of 2)": "as the sequence (P01100 137-200 R144A, chain 2 of 2) above, with A8R, K12A counted along it"}, "[6]": {"molecular_target": "Jun bZIP K268A;Fos bZIP R144A (human;human, UniProt P05412;P01100 252-315;137-200, K268A|R144A)", "sequence (P05412 252-315 K268A, chain 1 of 2)": "as the sequence (P05412 252-315 R259A, chain 1 of 2) above, with A8R, K17A counted along it", "sequence (P01100 137-200 R144A, chain 2 of 2)": "as the sequence (P01100 137-200 R144A, chain 2 of 2) above"}, "[7]": {"molecular_target": "Jun bZIP K268A;Fos bZIP R158A (human;human, UniProt P05412;P01100 252-315;137-200, K268A|R158A)", "sequence (P05412 252-315 K268A, chain 1 of 2)": "as the sequence (P05412 252-315 R259A, chain 1 of 2) above, with A8R, K17A counted along it", "sequence (P01100 137-200 R158A, chain 2 of 2)": "as the sequence (P01100 137-200 R144A, chain 2 of 2) above, with A8R, R22A counted along it"}, "[8]": {"molecular_target": "Jun bZIP R270A;Fos bZIP R144A (human;human, UniProt P05412;P01100 252-315;137-200, R270A|R144A)", "sequence (P05412 252-315 R270A, chain 1 of 2)": "as the sequence (P05412 252-315 R259A, chain 1 of 2) above, with A8R, R19A counted along it", "sequence (P01100 137-200 R144A, chain 2 of 2)": "as the sequence (P01100 137-200 R144A, chain 2 of 2) above"}, "[9]": {"molecular_target": "Jun bZIP K258A;Fos bZIP R146A (human;human, UniProt P05412;P01100 252-315;137-200, K258A|R146A)", "sequence (P05412 252-315 K258A, chain 1 of 2)": "as the sequence (P05412 252-315 R259A, chain 1 of 2) above, with K7A, A8R counted along it", "sequence (P01100 137-200 R146A, chain 2 of 2)": "as the sequence (P01100 137-200 R144A, chain 2 of 2) above, with A8R, R10A counted along it"}, "[10]": {"molecular_target": "Jun bZIP K273A;Fos bZIP R144A (human;human, UniProt P05412;P01100 252-315;137-200, K273A|R144A)", "sequence (P05412 252-315 K273A, chain 1 of 2)": "as the sequence (P05412 252-315 R259A, chain 1 of 2) above, with A8R, K22A counted along it", "sequence (P01100 137-200 R144A, chain 2 of 2)": "as the sequence (P01100 137-200 R144A, chain 2 of 2) above"}, "[11]": {"molecular_target": "Jun bZIP R263A;Fos bZIP R143A (human;human, UniProt P05412;P01100 252-315;137-200, R263A|R143A)", "sequence (P05412 252-315 R263A, chain 1 of 2)": "as the sequence (P05412 252-315 R259A, chain 1 of 2) above, with A8R, R12A counted along it", "sequence (P01100 137-200 R143A, chain 2 of 2)": "as the sequence (P01100 137-200 R144A, chain 2 of 2) above, with R7A, A8R counted along it"}, "[12]": {"molecular_target": "Jun bZIP K273A;Fos bZIP R155A (human;human, UniProt P05412;P01100 252-315;137-200, K273A|R155A)", "sequence (P05412 252-315 K273A, chain 1 of 2)": "as the sequence (P05412 252-315 R259A, chain 1 of 2) above, with A8R, K22A counted along it", "sequence (P01100 137-200 R155A, chain 2 of 2)": "as the sequence (P01100 137-200 R144A, chain 2 of 2) above, with A8R, R19A counted along it"}, "[13]": {"molecular_target": "Jun bZIP R270A;Fos bZIP R157A (human;human, UniProt P05412;P01100 252-315;137-200, R270A|R157A)", "sequence (P05412 252-315 R270A, chain 1 of 2)": "as the sequence (P05412 252-315 R259A, chain 1 of 2) above, with A8R, R19A counted along it", "sequence (P01100 137-200 R157A, chain 2 of 2)": "as the sequence (P01100 137-200 R144A, chain 2 of 2) above, with A8R, R21A counted along it"}, "[14]": {"molecular_target": "Jun bZIP R259A;Fos bZIP R155A (human;human, UniProt P05412;P01100 252-315;137-200, R259A|R155A)", "sequence (P05412 252-315 R259A, chain 1 of 2)": "as the sequence (P05412 252-315 R259A, chain 1 of 2) above", "sequence (P01100 137-200 R155A, chain 2 of 2)": "as the sequence (P01100 137-200 R144A, chain 2 of 2) above, with A8R, R19A counted along it"}, "[15]": {"molecular_target": "Jun bZIP R263A;Fos bZIP R144A (human;human, UniProt P05412;P01100 252-315;137-200, R263A|R144A)", "sequence (P05412 252-315 R263A, chain 1 of 2)": "as the sequence (P05412 252-315 R259A, chain 1 of 2) above, with A8R, R12A counted along it", "sequence (P01100 137-200 R144A, chain 2 of 2)": "as the sequence (P01100 137-200 R144A, chain 2 of 2) above"}, "[16]": {"molecular_target": "Jun bZIP R261A;Fos bZIP R155A (human;human, UniProt P05412;P01100 252-315;137-200, R261A|R155A)", "sequence (P05412 252-315 R261A, chain 1 of 2)": "as the sequence (P05412 252-315 R259A, chain 1 of 2) above, with A8R, R10A counted along it", "sequence (P01100 137-200 R155A, chain 2 of 2)": "as the sequence (P01100 137-200 R144A, chain 2 of 2) above, with A8R, R19A counted along it"}},
  "data": [
    {"binder": "B1", "values": [
      {"measurement": "Kd", "setting": "[1]", "value": "15800 ± 620", "unit": "nM"},
      {"measurement": "Kd", "setting": "[2]", "value": "910 ± 70", "unit": "nM"},
      {"measurement": "Kd", "setting": "[3]", "value": "420 ± 20", "unit": "nM"},
      {"measurement": "Kd", "setting": "[4]", "value": "760 ± 10", "unit": "nM"},
      {"measurement": "Kd", "setting": "[5]", "value": "1130 ± 10", "unit": "nM"},
      {"measurement": "Kd", "setting": "[6]", "value": "1790 ± 20", "unit": "nM"},
      {"measurement": "Kd", "setting": "[7]", "value": "430 ± 20", "unit": "nM"},
      {"measurement": "Kd", "setting": "[8]", "value": "6700 ± 410", "unit": "nM"},
      {"measurement": "Kd", "setting": "[9]", "value": "660 ± 10", "unit": "nM"},
      {"measurement": "Kd", "setting": "[10]", "value": "3590 ± 300", "unit": "nM"},
      {"measurement": "Kd", "setting": "[11]", "value": "2250 ± 50", "unit": "nM"},
      {"measurement": "Kd", "setting": "[12]", "value": "6790 ± 420", "unit": "nM"},
      {"measurement": "Kd", "setting": "[13]", "value": "3560 ± 130", "unit": "nM"},
      {"measurement": "Kd", "setting": "[14]", "value": "5750 ± 90", "unit": "nM"},
      {"measurement": "Kd", "setting": "[15]", "value": "4210 ± 200", "unit": "nM"},
      {"measurement": "Kd", "setting": "[16]", "value": "2460 ± 30", "unit": "nM"}
    ]}
  ]
}
